Assay: yeast display, Sf9 membrane polyspecificity reagent, FACS + sequencing; frameworks hold sequencing errors
Procedure, shortened: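 Galactose induction of a Saccharomyces cerevisiae BJ5465 synthetic nanobody display library ran 36–48 hours. The cells were then stained for 1 hour at 4 °C with 10% biotinylated, detergent-solubilized Sf9 membrane reagent, pulled down on streptavidin microbeads and FACS-sorted into low and high (top ~1%) gates on expression and reagent-binding fluorescence. Labels for polyreactivity follow the gate of origin.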

Row | Sequence | polyreactivity (PSR sort gate)
1 | QVQLVESGGGLVQAGGSLRLSCAASGSIYGYAMGWYRQAPGKERELVAAISGRGGRTYYADSVKGRFTISRDNAKNTVYLQMNSLKPEDTAVYYCNVQWRYPYHYTVDYWGQGTQVTVSS | high polyreactivity
2 | QVQLVESGGGLVQAGGSLRLSCAASGFTFRVYAMGWYIQAPGKERELVAAITKRGGTTYYADSVKGRFTISRDNAKNTVYLQMNSLKPEDTAVYYCATENTPHYASHGYLGQGTQVTVSS | high polyreactivity
3 | QVQLVESGGGLDQAGGSLRLSCAASGRTINGNTMGCYRQAPGKQRELVAVIDWSGGSTYYADSVKGRFTISRDNAKNTVYLQMNSLKPEDTAVYYCNAETRDPILYGEYDYWGQGTQVTVSS | low polyreactivity
4 | QDQLVESGGGLVQAGGSLRLSCAASGRTFPGYAMGWYRQAPGKERELVATSTVSDGSTYYADSVKGRFTISRDNAMNTVYLHMNSLIAEDTAVYYCAKDGGRKRSYSDFDYWRQGTQVTVSS | low polyreactivity
5 | QVQLVESGGGLVQAGGSLRLSCAASGITFTPNAMGWYRQAPGKEREFVAAITYSGGSTYYADSVKGRFTISRDNAKNTVYLQMNSLKPEDTAVYYCAAVYYLLYYEAYYYWGQGTQVTVSS | low polyreactivity
6 | QVQLVESGGGLVQAGGSLRLSCAASGSIFVSYGMGWYRPAPGKERELVAAISGGGVSTYYADSVKGRFTISRDNAKNTVYLQMNSLIPEDTAVYYCAAEVSFGWGNYGYDYWGQGTQVTVSS | high polyreactivity
7 | QVQLVESGGGLVQSGGSLRLSCAASGSTFGFYAMGGYRQAPGKERELVAAISRGGSTNYADSVKGRFTISRDNAKNTVSCQMNSLKPEDTAVYYCAKAYHATSYYWGQGTQVTVSS | low polyreactivity
8 | QVQLVESGGGLVQAGGSLRLSCAASGSIFGSYAMGWYRQAPGTERELVAAIDWSGVGTYYADSVKGRFTISRDNANNTVYLQMNSLKPEDTAVYYCAAGVLRRDTELYYWGQGTQVTVSS | low polyreactivity
9 | QVQLVESGGGLVQAGGSLRLSCAASGSIFYGNAMGGYRQAPGKERELVASITYSGGNTQYADSVKGRFTISRDNAKNTVYLQMNSLKPEVTAVYYCNARRYGVDTGWRQGLDSWGQGTQVTVSS | low polyreactivity
10 | QVQLVESGGGLVQAGGSLRLSCAASGSIFGVNAMGWYRQAPGKERELVATISASGGSTYYADSVKGRFTISRDNAKNTVYLQMNSLKPEDTAVYYCATVVSPSPEMDYWGQGTQVTVSS | low polyreactivity
11 | QVQLEESGGGLVQAGGSLRLSCAASGSIFRGYAMGWYRQAPGKERELVAAITWGGGSTYADSVKGRFTISRDNAKNTVYLQMNSLKPEDTAVYYCAARYVSRYYVYRGFEYWGQGTQVTVSS | high polyreactivity
12 | QVQLVESGGGLVQAGGSLRLSCAASGFTFSYNAMGWYRQAPGKERELVAAISSGGRTYYADSVKGRFTISRDNAKNTVYLQINSLKPEDTAVYYCNAEPDQYTLRSITNDEDYWGQGTQVTVSS | low polyreactivity
13 | QVQLVESGGGLVQAGGSLRLSCAASGITIYNYAMGWYRQAPGKERELVAAITRSGGSTYYADSVKGRFTISRDNAKNTVYLQMNSLKPEDTAVYYCATGKYWRYDYWGQGTQVTVSS | high polyreactivity
14 | QVQLVESGGGLVQAGGSLRLSCAASGRIFDQYTMGWYRQAPGKERELVAAIRWSDGSTYYADSVKGRFTISRDNAKNTVYLQMNSLKPEDTAVYYCAADTRTSYYNDDYDYWGQGTQVTVSS | low polyreactivity
15 | QVQLVESGGGLVQAGGSLRLSCAASGRTFSRYAMGWSRQAPGKERELVASITSRGGSTYYADSVKGRFTISRDNAKNTVYLQMNSLKPEDTAVYYCNVKPTYSTRYWEDYWGQGTQVTVSS | high polyreactivity
16 | QVQLVESGGGLVQAGGSLRLSCAASGIIFGYYAMGWYRQAPGKERELVAAINQDGSSTYYADSVKGRFTISRDNAKNTVYLQMNSLKPEDTAVYYCNARGVPRQDARMGYWGQGTQVTVSS | low polyreactivity

Row | Sequence | polyreactivity (PSR sort gate)
17 | QVQLVESGGGLVQAGGSLRFSCAASGSTFFGNTMGWYRQAPGKERELVAAISRRGGSTYYADSVKGRFTISRDNAKNTVYLQMNSLKPEDTAVYYCAKYYHSGGYTPGKYDYWGQGTQVTVSS | high polyreactivity
18 | QVQLVESGGGLVQAGGSLRLSCAASGSTIDYYAMGLYRQAPGKERELVAGISASGGSTYYADSEKGRFTISRDNAKNTVYLQMNSLKPEDTAVYYCASYYKPPGYDYWGQGTQVTVSS | low polyreactivity
19 | QVQLVESGGGLVQAGGSLRLSCAASGSIFYLNAMGWYRQAPGKERELVAAINSGGTTNYADSVKGRFTISRDNAKNTVYLQMNSLKPEDTAVYYCATDGYYYYYRVYKFDYWGQGTQVTVSS | low polyreactivity
20 | QVQLVESGGGLVQAGGSLRLSCAASGFIDVSYAMGWYRQAPGKERELVAAIDRIGGITYYADSVKGRFTISRDNAKNTVYLQMNSLKPEDTAVYYCAAAARYATVRVGREYYWGQGTQVTVSS | low polyreactivity
21 | QVQLVESGGGLVQAGGSLRLSCAASGFTFRRYTMGWYRQAPGKERELVARISSRGGRTFYADSVKGRFTISRDNAKNTVYLQMNSLKPEDTAVYYCAKRAPYGTTSPGGDYWGQGTQVTVSS | high polyreactivity
22 | QVQLVESGGGLVQAGGSLRLSCAASGRISVYYAMGWYRQGPGKERELVAAISWRGSTYYADSVKGRFTISRDYAKNTVYIQMNSQKPEDTAVYNSAARSTGYYGRFYYWGQGTQVTVSS | high polyreactivity
23 | QVQLVESGGGLVQAGGSLRLSCAASGYTFRTNVMGWYRPAPGKVWELVATINWRGGSTYYADSVKGRFTISRDNAKNTVYLQMNSLKPEDTAVYYCAKSYRYYRTMDYWGQGTQVTVSS | low polyreactivity
24 | QVQLVESGGGLVQAGGSLRLSCDASGFIFKGNAMGWYRHAPRKERELVAAITNRGGGTYYADSVKGRFTISRDNAKNTVYLQMNSLKPEDTAVYYCAKAYTRPFHPYDYWGQGTQVTVSS | high polyreactivity
25 | QVQLVESGGGLVQAGGSLRLSCAASGSTFPRYAMGWYRQAPGKERELVAAISRSGTSTYYADSVKGRFTISRDNAKNTVYLQMNSLKPEDTAVYYCAAEYHPRVLYPNWYDYWGQGTQVTVSS | low polyreactivity
26 | QVQLVESGGGLVQAGGSLRLSCASSGRTFQVNAMGWYRQAPGKERELVAAISASDGSTYADSVKGRFTISRDNAKNTVYLQMNSLKPEDTAVYYCNKAAYGGHRTSEQVGWVYLYDYWGQGTQVTVSS | low polyreactivity
27 | QVQVVESGGGLVQPGGSLRLSCAASGFIFFRYDMGWYRQAPGKERELVAAITDDGSTYADSVKGRFTISRDNAKNNVYLQMNSLKPEDTAVYYCNVQSKSSYWWYGYDYWGQGTQVTVSS | low polyreactivity
28 | QVQLVESGGGLVQAGGRLRLSCAPSGRIFVYNAMGWYRQAPGKERELVAAINSGDSTYYADSVKGRFTISRDNAKKTVYLQMNSLKPEDTAVYYCARDGWAFSIYYDLDYWGQGTQVTVSA | low polyreactivity
29 | QVQLVESGGGLVQAGGSLRLSCAASGSTIDPYGMGWYRQAPGKERELVAAITSSGRTNYADSVKGRFTISRDNAKNTVYLQMNSLKPEDTAVYYCNVQTYVELRLDYWGQGTQVTVSS | low polyreactivity
30 | QLQLVESGGGLVLAGGSLRLSCAASGYLFQRTAKGCYRQATGKVRELVSTISRGGARTSYAYSVKGRFTISSDNANNTVYLQMNSLKPEDTAVYYCAKSYRKAGGMWSYGYWGQGTQVTVSS | high polyreactivity
31 | QVQLVESGGGLVQAGGSLRLSCAASGFIFKYYAMGWYRQAPGKERELVAAITGSGGRTYYADSVKGRFTISRDNAKNTVYLQMNSLKPEDTAVYYCAADLGGNSRLDYWGQGTQVTVSS | high polyreactivity

Source: the nanobody polyreactivity screen of Harvey et al. (2022)
